For this series, the target named is GST-CHE (Arabidopsis thaliana, UniProt Q9FTA2 1-239). Briefly: EMSA; 5 pmol protein, 50 fmol probe; no HaRxL10; LightShift Chemiluminescent EMSA Kit per manufacturer; 5 pmol protein, 50 fmol biotin probe, 200-fold unlabelled competitor; probes annealed in 10 mM Tris, 1 mM Na2EDTA, 50 mM NaCl; binding buffer, pH and temperature not stated. The conditions noted are these: protein: recombinant; tags: GST (pET-42a); chain copies: 2; label: 5'-biotin; blunt. (In general: Mobility shift assays separate free from complexed probe on a gel.)
Chain of GST-CHE (Q9FTA2 whole entry): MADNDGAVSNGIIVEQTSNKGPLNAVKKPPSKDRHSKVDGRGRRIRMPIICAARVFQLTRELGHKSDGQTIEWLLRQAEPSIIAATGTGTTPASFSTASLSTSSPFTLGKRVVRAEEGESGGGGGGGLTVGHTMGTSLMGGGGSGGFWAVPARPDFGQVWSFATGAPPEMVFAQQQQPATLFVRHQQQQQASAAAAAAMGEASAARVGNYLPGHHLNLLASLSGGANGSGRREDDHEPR

B1: TBS probe (dsDNA)
DNA 1: GTAGGTCCCACTAGGTAGGTCCCACTAGGTAGGTCCCACTAGGTAGGTCCCACTAGGTAGGTCCCACTAG
DNA 2: CTAGTGGGACCTACCTAGTGGGACCTACCTAGTGGGACCTACCTAGTGGGACCTACCTAGTGGGACCTAC
With B1, the binding result is listed as “binds”.

The values above are taken from article PMC11814294, “A pathogen effector HaRxL10 hijacks the circadian clock component CHE to perturb both plant development and immunity”.
